# Results from US11419945B2, “Antigen binding proteins” (Glaxo Group Limited, priority 2011, dated 2022).
# T1: Human commercial BCMA (Homo sapiens, UniProt Q02223)
# T1 construct: purchased US Biological B0410
# T1 sequence (Q02223 1-184): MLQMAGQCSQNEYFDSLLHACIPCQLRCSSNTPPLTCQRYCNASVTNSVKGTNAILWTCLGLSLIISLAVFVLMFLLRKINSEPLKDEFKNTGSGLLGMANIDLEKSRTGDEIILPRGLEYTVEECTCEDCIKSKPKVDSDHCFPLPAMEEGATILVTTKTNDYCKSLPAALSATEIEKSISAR
# T2: human BCMA HEK293 (Homo sapiens, UniProt Q02223)
# T2 construct: expressed in transfected cells; host or cells: HEK293
# T2 sequence (Q02223 1-184): T1 sequence (Q02223 1-184)
# T3: ARH77-hBCMA 10B5 BCMA expressing transfectant cells (Homo sapiens, UniProt Q02223)
# T3 construct: expressed in transfected cells; host or cells: ARH77 (clone 10B5)
# T3 sequence (Q02223 1-184): T1 sequence (Q02223 1-184)
# B1: CA8 Chimera: chimeric anti-BCMA antibody: murine CA8 VH (SEQ ID NO:7) and VL (SEQ ID NO:9) on human γ1 and kappa constant regions (antibody, V domains shown)
# VH: EVQLQQSGAVLARPGASVKMSCKGSGYTFTNYWMHWVKQRPGQGLEWIGATYRGHSDTYYNQKFKGKAKLTAVTSTSTAYMELSSLTNEDSAVYYCTRGAIYNGYDVLDNWGQGTLVTVSS
# VL: DIQLTQTTSSLSASLGDRVTISCSASQDISNYLNWYQQKPDGTVELVIYYTSNLHSGVPSRFSGSGSGTDYSLTIGYLEPEDVATYYCQQYRKLPWTFGGGSKLEIKR
# modifications: human IgG1 and kappa constant regions; mus musculus
# How the values were obtained:
# Human BCMA-Fc = target: T4, Human BCMA-Fc (Homo sapiens, UniProt Q02223); assay: ELISA binding to recombinant human BCMA-Fc; settings: 5 ug/ml to 0.1 ug/ml antibody
# T4 construct: CD33 signal peptide (N); TEV site (internal)
# Method: (§1) Chimeric CA8 antibodies were tested for binding to human BCMA and cyno BCMA expressed as Fc fusions. Human BCMA-Fc and cyno BCMA-Fc were coated to ELISA plates and the plates were blocked using BSA to reduce non specific binding. CA8 chimeric antibodies were added in a concentration range from 5 ug/ml to 0.1 ug/ml to the human and cyno BCMA coated ELISA plates. Any bound human chimeric CA8 antibody was detected using anti-human IgG HRP conjugated secondary antibody as appropriate. HRP substrate (TMB) was added to develop the ELISA.
# cyno BCMA HEK293 = assay: FMAT binding assay, cyno BCMA expressing HEK293 cells; settings: range of antibody concentrations
# Method: (§2) Cryopreserved transfected human, cyno BCMA and mock transfected HEK293 cells were recovered from LN2 storage. Assay wells were prepared with human chimeric CA8 antibody, at a range of different concentrations, mixed with human BCMA HEK293, cyno BCMA HEK293 and mock transfected cells respectively. Anti-human IgG FMAT Blue secondary conjugate was added for detection of human chimeric CA8. The assay plates were left for a minimum of 90 minutes before the result was read on the ABI8200 (FMAT) plate reader.
# Human commercial BCMA [1] = target: T1, Human commercial BCMA; assay: BIAcore analysis of J6M0 and J9M0, human commercial BCMA; format: binding
# Method: (§3) Protein A was immobilised on a CMS chip (GE Healthcare, Cat No: BR-1005-30) by primary amine coupling and this surface was then used to capture the antibody molecules. Recombinant human BCMA (US Biological, B0410) was used as analyte at 256 nM, 64 nM, 16 nM, 4 nM and 1 nM. Regeneration of the capture surface was carried out using 50 mM NaOH. All binding curves were double referenced with a buffer injection (i.e. 0 nM) the data was fitted to the using the 1:1 model inherent to T100 evaluation software. The run was carried out at 25° C. and 37° C. for experiment 1 and only 37° C. for experiment 2 using HBS-EP as the running buffer.
# cyno BCMA-Fc = assay: ELISA binding to recombinant cyno BCMA-Fc; settings: 5 ug/ml to 0.1 ug/ml antibody
# Method: as §1
# Human commercial BCMA [2] = target: T1, Human commercial BCMA; assay: ProteOn analysis of CA8 chimeric and humanised constructs, commercial human BCMA; format: binding; settings: Run 2, commercial human BCMA, 25° C.
# Method: The initial screen of CA8 chimeric and humanised variants was carried out on the ProteOn XPR36 (Biorad). The method was as follows; Protein A was immobilised on a GLC chip (Biorad, Cat No: 176-5011) by primary amine coupling, CA8 variants were then captured on this surface and recombinant human BCMA (in house or commercial US Biological, B0410) materials (run 2 only)) passed over at 256, 64, 16, 4, 1 nM with a 0 nM injection (i.e. buffer alone) used to double reference the binding curves, the buffer used is the HBS-EP buffer. 50 mM NaOH was used to regenerate the capture surface. The data was fitted to the 1:1 model using the analysis software inherent to the ProteOn XPR36. Run 1 corresponds to the first screen of humanised CA8 variants (JO to J5 series) and run 2 to the second screen of humanised CA8 variants (J5 to J9 series). Both runs were carried out at 25° C.
# Human commercial BCMA [3] = target: T1, Human commercial BCMA; assay: BIAcore analysis J7 to J9 series, human commercial BCMA; format: binding; settings: 37° C.
# Method: as §3, with “nM) and” for “nM)”, “at” for “at 25° C. and”, “C.,” for “C. for experiment 1 and only 37° C. for experiment 2”
# human BCMA HEK293 = target: T2, human BCMA HEK293; assay: FMAT binding assay, human BCMA expressing HEK293 cells; settings: range of antibody concentrations
# Method: as §2
# H929 cells = assay: FACS binding of humanised CA8 to H929 cells; set-up: species or system human; settings: varying concentrations, 20 minutes at RT
# Method: (§4) ARH77-hBCMA 10B5 BCMA expressing transfectant cells or H929 cells were stained with either chimeric CA8 or humanised variants of CA8 designated J6M0, J6M1, J6M2, J9M0, J9M1, J9M2 at varying concentrations for 20 minutes at RT. Cells were then washed with FACS buffer (PBS+0.5% BSA+0.1% sodium azide) to remove unbound antibody. Cells were incubated with a secondary PE labelled anti-human IgG antibody for 15 minutes at RT and then washed with FACS buffer to remove unbound antibody. Cells were analysed by FACS and mean fluorescence intensity (MFI) values measured to determine binding.
# [4] = target: T3, ARH77-hBCMA 10B5 BCMA expressing transfectant cells; assay: FACS binding of humanised CA8 to BCMA transfected cells; settings: varying concentrations, 20 minutes at RT
# Method: as §4
# Cyno in house BCMA = assay: ProteOn analysis of CA8 chimeric and humanised constructs, cyno in house BCMA; format: binding; settings: 25° C.; for ka: in M-1s-1 (unit assumed); for kd: in s-1 (unit assumed)
# [5] = listed as human chimeric CA8 antibodies
# Sequence of Cyno in house BCMA (as listed by the source): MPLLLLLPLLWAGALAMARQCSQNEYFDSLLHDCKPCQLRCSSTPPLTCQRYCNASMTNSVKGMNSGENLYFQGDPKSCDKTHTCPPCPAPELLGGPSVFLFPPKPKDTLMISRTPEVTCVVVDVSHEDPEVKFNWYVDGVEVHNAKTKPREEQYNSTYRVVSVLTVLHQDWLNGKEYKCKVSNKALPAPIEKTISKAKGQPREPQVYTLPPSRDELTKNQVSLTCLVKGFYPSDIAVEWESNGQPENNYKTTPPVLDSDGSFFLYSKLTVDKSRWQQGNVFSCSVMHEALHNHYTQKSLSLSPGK
# T4 sequence (Q02223 with tags, fused parts or gaps): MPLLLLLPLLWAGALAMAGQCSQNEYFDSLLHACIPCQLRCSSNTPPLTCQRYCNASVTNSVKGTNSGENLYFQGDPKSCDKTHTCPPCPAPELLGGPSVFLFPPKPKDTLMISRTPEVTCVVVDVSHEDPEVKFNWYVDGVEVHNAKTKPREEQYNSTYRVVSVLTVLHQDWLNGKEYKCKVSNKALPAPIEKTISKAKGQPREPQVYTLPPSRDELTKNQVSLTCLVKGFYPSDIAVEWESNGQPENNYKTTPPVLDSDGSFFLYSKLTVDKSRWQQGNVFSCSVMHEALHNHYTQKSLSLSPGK
# Sequence of cyno BCMA HEK293 (as listed by the source): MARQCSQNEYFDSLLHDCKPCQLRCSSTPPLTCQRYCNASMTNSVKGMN
molecule,measurement,setting,value
B1,binding to recombinant human BCMA (ELISA),Human BCMA-Fc; listed as Chimeric CA8,binds to recombinant human and cyno BCMA
same,binding to recombinant human BCMA (ELISA),Human BCMA-Fc; [5],bind to human and cyno BCMA proteins equally
same,binding to cyno BCMA expressed on HEK293 cells,cyno BCMA HEK293,binds well
same,ka,"Human commercial BCMA [1]; 25° C., Experiment 1, in M-1s-1 (unit assumed)",1.88E+06
same,kd,"Human commercial BCMA [1]; 25° C., Experiment 1, in s-1 (unit assumed)",2.63E−04
same,ka,"Human commercial BCMA [1]; 37° C., Experiment 1, in M-1s-1 (unit assumed)",1.72E+07
same,kd,"Human commercial BCMA [1]; 37° C., Experiment 1, in s-1 (unit assumed)",8.72E−04
same,ka,"Human commercial BCMA [1]; 37° C., Experiment 2, in M-1s-1 (unit assumed)",1.88E+07
same,kd,"Human commercial BCMA [1]; 37° C., Experiment 2, in s-1 (unit assumed)",1.04E−03
same,binding to recombinant cyno BCMA (ELISA),cyno BCMA-Fc; listed as Chimeric CA8,binds to recombinant human and cyno BCMA
same,binding to recombinant cyno BCMA (ELISA),cyno BCMA-Fc; [5],bind to human and cyno BCMA proteins equally
same,ka,Human commercial BCMA [2]; in M-1s-1 (unit assumed),7.05E+05
same,kd,Human commercial BCMA [2]; in s-1 (unit assumed),9.79E−05
same,ka,Human commercial BCMA [3]; in M-1s-1 (unit assumed),3.27E+07
same,kd,Human commercial BCMA [3]; in s-1 (unit assumed),1.18E−03
same,binding to human BCMA expressed on HEK293 cells,human BCMA HEK293,binds well
same,dose dependent binding to H929 cells by FACS (MFI),H929 cells,bound
same,dose dependent binding to ARH77-hBCMA 10B5 cells by FACS (MFI),[4],bound
same,ka,"Cyno in house BCMA; Run 1, Cyno in house BCMA",3.82E+05
same,kd,"Cyno in house BCMA; Run 1, Cyno in house BCMA",1.74E−04
same,ka,"Cyno in house BCMA; Run 2, Cyno in house BCMA",5.89E+04
same,kd,"Cyno in house BCMA; Run 2, Cyno in house BCMA",1.21E−04
